Measured values: paper PMC4157418

Molecular target: Acinetobacter baumannii alanine racemase (Acinetobacter baumannii strain NCTC13302) (UniProt B0VNF6)
Experiment: crystal structure; sitting drops, 100 mM MES pH 6.0, 200 mM CaCl2, 20% PEG 6000; space group P2(1), two monomers in the asymmetric unit; 1.9 Å; interface analysed with PISA

Acinetobacter baumannii alanine racemase (from UniProt B0VNF6 1-367) (enzyme)
stoichiometry N: 2
